In the RNAGym collection of RNA variant scans (doi:10.1021/acssynbio.7b00057):

B1: Pistol ribozyme (parent)
chain: GGGUCGUUGUUCCAUAAUCGCGUGGAUAUGGCACGCAAGUUUCUACCGGGCACCGUAAAUGUCCGACUGGAGCCGUUCGGGCGGCUAUAAACAGACCUCAGGCCCGAAGCGUGGCGGCACCUGCCGCCGGUGGUAAAAAAGAUCGGAAGAGCACACGUCU

Variants of: B1
Experiment: aptazyme ON/OFF ratio, guanine; higher = stronger switching; co-transcriptional cleavage with and without guanine

**Q.** With U7G U8C G9C U10C U11A C12G C13A as the variant, how does the “aptazyme ON/OFF ratio” value read?
**A.** Its value is 1.2.

**Q.** With U7A U8G U11C C12A as the variant, how does the “aptazyme ON/OFF ratio” value read?
**A.** The value was 1.24.

**Q.** For U7A U8C G9A U10C U11A, which “aptazyme ON/OFF ratio” value is on record?
**A.** Its value is 1.24.

**Q.** With U7G U8G G9A U10A U11A C13G as the variant, how does the “aptazyme ON/OFF ratio” value read?
**A.** The value was 1.14.

**Q.** For U7G U10C C12A, which “aptazyme ON/OFF ratio” value is on record?
**A.** The value was 1.12.

**Q.** For U7A U8C G9U U10G U11C C12A C13A, which “aptazyme ON/OFF ratio” value is on record?
**A.** Its value is 1.14.

**Q.** With U7A U8A G9A U10G C13U as the variant, how does the “aptazyme ON/OFF ratio” value read?
**A.** Its value is 1.34.

**Q.** With U7C U8A G9U U10C C12A C13U as the variant, how does the “aptazyme ON/OFF ratio” value read?
**A.** The value was 1.15.

**Q.** For U7G U10C U11A C12U, which “aptazyme ON/OFF ratio” value is on record?
**A.** The value was 1.2.

**Q.** Which “aptazyme ON/OFF ratio” value does the source give for U7C G9A U10G C12U here?
**A.** Its value is 1.33.

**Q.** For U7C G9A U10A C12U C13G, which “aptazyme ON/OFF ratio” value is on record?
**A.** Its value is 1.2.

**Q.** With U7C U8C U10G C12A C13U as the variant, how does the “aptazyme ON/OFF ratio” value read?
**A.** The value was 1.12.

**Q.** Which “aptazyme ON/OFF ratio” value does the source give for U7G U8C U10A C12U C13U here?
**A.** Its value is 1.12.

**Q.** With U7A U8G G9A U10G C12G C13G as the variant, how does the “aptazyme ON/OFF ratio” value read?
**A.** Its value is 1.17.

**Q.** With U7A U8C G9C U10C U11A C13G as the variant, how does the “aptazyme ON/OFF ratio” value read?
**A.** The value was 1.08.

**Q.** Which “aptazyme ON/OFF ratio” value does the source give for G9A U10C U11A C12G C13U here?
**A.** Its value is 1.36.

**Q.** With U7C U8C G9A U10G C13G as the variant, how does the “aptazyme ON/OFF ratio” value read?
**A.** The value was 1.12.

**Q.** Which “aptazyme ON/OFF ratio” value does the source give for U7C U8C G9A U10G C13U here?
**A.** The value was 1.37.

**Q.** For U8G G9C U11G C13A, which “aptazyme ON/OFF ratio” value is on record?
**A.** Its value is 1.05.

**Q.** With U7C U8A G9C U10C U11G C12G C13G as the variant, how does the “aptazyme ON/OFF ratio” value read?
**A.** Its value is 1.11.

**Q.** For U7A G9A U10C C12A, which “aptazyme ON/OFF ratio” value is on record?
**A.** The value was 1.43.

**Q.** Which “aptazyme ON/OFF ratio” value does the source give for U7C U8C G9C U11C here?
**A.** Its value is 1.43.

**Q.** With U7G U8C U10A U11A C12G C13G as the variant, how does the “aptazyme ON/OFF ratio” value read?
**A.** The value was 1.22.

**Q.** For U7C U8A U10G U11G C13U, which “aptazyme ON/OFF ratio” value is on record?
**A.** The value was 1.32.

**Q.** For U7A U8A G9C U10A U11A C12A, which “aptazyme ON/OFF ratio” value is on record?
**A.** The value was 1.13.

**Q.** For U8G G9C U10G U11C C12G, which “aptazyme ON/OFF ratio” value is on record?
**A.** Its value is 1.03.

**Q.** Which “aptazyme ON/OFF ratio” value does the source give for U7G G9U U10C U11C here?
**A.** Its value is 1.42.

**Q.** Which “aptazyme ON/OFF ratio” value does the source give for U8A C12U C13A here?
**A.** The value was 1.28.

**Q.** With U7C U8G G9A U11C C12A C13U as the variant, how does the “aptazyme ON/OFF ratio” value read?
**A.** Its value is 1.14.

**Q.** With U7G U8C G9C U10G U11G C12A C13A as the variant, how does the “aptazyme ON/OFF ratio” value read?
**A.** The value was 1.11.

**Q.** For U8C G9A U10G C13U, which “aptazyme ON/OFF ratio” value is on record?
**A.** The value was 1.26.

**Q.** With U7C U8A G9C U10G C12A as the variant, how does the “aptazyme ON/OFF ratio” value read?
**A.** Its value is 1.17.

**Q.** For U7C U8C G9A U10A C13U, which “aptazyme ON/OFF ratio” value is on record?
**A.** Its value is 2.14.

**Q.** With U7A U8C U11C C12A as the variant, how does the “aptazyme ON/OFF ratio” value read?
**A.** The value was 1.39.

**Q.** Which “aptazyme ON/OFF ratio” value does the source give for U7A U10G U11G C13G here?
**A.** The value was 1.16.

**Q.** With U7A U8C G9C U10C U11G C12A C13U as the variant, how does the “aptazyme ON/OFF ratio” value read?
**A.** The value was 1.11.

**Q.** For U7C U8A G9A U11G C13A, which “aptazyme ON/OFF ratio” value is on record?
**A.** Its value is 1.18.

**Q.** Which “aptazyme ON/OFF ratio” value does the source give for U7C U8A G9C U11A C12U here?
**A.** Its value is 1.15.

**Q.** For U8A G9C U10C U11A C12G C13U, which “aptazyme ON/OFF ratio” value is on record?
**A.** The value was 1.16.

**Q.** With U7C G9C U10C U11A C13U as the variant, how does the “aptazyme ON/OFF ratio” value read?
**A.** The value was 1.03.

**Q.** For U7C U8G G9A U11G C12G C13U, which “aptazyme ON/OFF ratio” value is on record?
**A.** The value was 1.18.

**Q.** Which “aptazyme ON/OFF ratio” value does the source give for U7G U8G G9A here?
**A.** The value was 3.82.

**Q.** For U7A U8C G9A U10C C12A C13G, which “aptazyme ON/OFF ratio” value is on record?
**A.** The value was 1.18.

**Q.** For U7C U8G G9A U10A U11C C12A C13U, which “aptazyme ON/OFF ratio” value is on record?
**A.** The value was 1.17.

**Q.** With U7C U10G U11A C13U as the variant, how does the “aptazyme ON/OFF ratio” value read?
**A.** Its value is 1.08.

**Q.** Which “aptazyme ON/OFF ratio” value does the source give for U7A G9A U10C U11G C12A C13U here?
**A.** The value was 1.1.

**Q.** Which “aptazyme ON/OFF ratio” value does the source give for U7C U11G C13U here?
**A.** The value was 1.03.

**Q.** With U7A U8A G9U U11G C12U C13U as the variant, how does the “aptazyme ON/OFF ratio” value read?
**A.** Its value is 1.55.

**Q.** For U7G U8G G9U U10G U11A C12U C13A, which “aptazyme ON/OFF ratio” value is on record?
**A.** Its value is 1.1.

**Q.** Which “aptazyme ON/OFF ratio” value does the source give for U7C U8A G9U U10A U11A C12A C13U here?
**A.** The value was 1.19.

**Q.** With U7C U10A U11A C12U C13U as the variant, how does the “aptazyme ON/OFF ratio” value read?
**A.** Its value is 1.27.

**Q.** Which “aptazyme ON/OFF ratio” value does the source give for U7G U8C G9C U10C U11C C12A here?
**A.** The value was 1.05.

**Q.** For U7G U8A G9U U11G C12U C13U, which “aptazyme ON/OFF ratio” value is on record?
**A.** Its value is 1.15.

**Q.** With U7C U8C G9C U10A C13G as the variant, how does the “aptazyme ON/OFF ratio” value read?
**A.** Its value is 1.15.

**Q.** With U7C G9C U10A U11G C12U C13G as the variant, how does the “aptazyme ON/OFF ratio” value read?
**A.** The value was 1.08.

**Q.** Which “aptazyme ON/OFF ratio” value does the source give for U7G U10G U11G C12A here?
**A.** Its value is 1.08.

**Q.** Which “aptazyme ON/OFF ratio” value does the source give for G9C U10A U11G C12U here?
**A.** Its value is 1.37.

**Q.** With U8G G9C C12G C13A as the variant, how does the “aptazyme ON/OFF ratio” value read?
**A.** Its value is 1.05.

**Q.** For U8A U10G U11C C12G, which “aptazyme ON/OFF ratio” value is on record?
**A.** The value was 1.53.

**Q.** With U7C G9A U10G U11A C12G C13A as the variant, how does the “aptazyme ON/OFF ratio” value read?
**A.** Its value is 1.15.

**Q.** For U7A U10G U11A C13G, which “aptazyme ON/OFF ratio” value is on record?
**A.** The value was 1.09.

**Q.** For U7A U8G G9U U10G U11G C12U C13G, which “aptazyme ON/OFF ratio” value is on record?
**A.** The value was 1.3.

**Q.** Which “aptazyme ON/OFF ratio” value does the source give for U7G U8C G9A U10G U11C C12U C13U here?
**A.** Its value is 1.12.

**Q.** For U8C G9A U10C U11A C12A, which “aptazyme ON/OFF ratio” value is on record?
**A.** Its value is 1.44.

**Q.** With U7C G9A U10C U11G C12G as the variant, how does the “aptazyme ON/OFF ratio” value read?
**A.** Its value is 1.28.

**Q.** With U7G G9U C12U C13U as the variant, how does the “aptazyme ON/OFF ratio” value read?
**A.** Its value is 1.18.

**Q.** For U7G U8C G9U U10A C12G C13A, which “aptazyme ON/OFF ratio” value is on record?
**A.** Its value is 1.13.

**Q.** With U7G C13G as the variant, how does the “aptazyme ON/OFF ratio” value read?
**A.** The value was 1.05.

**Q.** With U7G U8G U10C C12G C13G as the variant, how does the “aptazyme ON/OFF ratio” value read?
**A.** Its value is 1.54.

**Q.** For U7A G9A U10G U11C C12U C13G, which “aptazyme ON/OFF ratio” value is on record?
**A.** Its value is 1.18.

**Q.** Which “aptazyme ON/OFF ratio” value does the source give for U7C U10A U11C C13U here?
**A.** The value was 1.01.

**Q.** With U7C U8G G9C U10G U11G C12U as the variant, how does the “aptazyme ON/OFF ratio” value read?
**A.** The value was 1.29.

**Q.** With U7G U8C G9A U10C U11G C12U as the variant, how does the “aptazyme ON/OFF ratio” value read?
**A.** The value was 1.37.

**Q.** For U7C U8G G9A U10G U11C C13U, which “aptazyme ON/OFF ratio” value is on record?
**A.** Its value is 1.03.

**Q.** For U8C G9A U10A U11C C12A C13A, which “aptazyme ON/OFF ratio” value is on record?
**A.** The value was 1.17.

**Q.** With G9U U10C U11C as the variant, how does the “aptazyme ON/OFF ratio” value read?
**A.** Its value is 1.63.

**Q.** For U7A C13G, which “aptazyme ON/OFF ratio” value is on record?
**A.** The value was 1.11.

**Q.** With U7G G9A U10G U11A C12A as the variant, how does the “aptazyme ON/OFF ratio” value read?
**A.** The value was 1.09.

**Q.** With U7G U8G U10A U11A C13G as the variant, how does the “aptazyme ON/OFF ratio” value read?
**A.** Its value is 1.21.

**Q.** With U7G U8A G9A U10G C12U as the variant, how does the “aptazyme ON/OFF ratio” value read?
**A.** The value was 1.52.

**Q.** Which “aptazyme ON/OFF ratio” value does the source give for U8G U10G U11G here?
**A.** The value was 1.45.

**Q.** With U7G U8G G9C U10G U11C C12G C13U as the variant, how does the “aptazyme ON/OFF ratio” value read?
**A.** The value was 1.16.

**Q.** For U7A U8C U10A U11A C12G C13G, which “aptazyme ON/OFF ratio” value is on record?
**A.** The value was 1.31.

**Q.** Which “aptazyme ON/OFF ratio” value does the source give for U7A U8A U10A C12A C13U here?
**A.** Its value is 1.37.
